Substitutions are numbered along the chain they refer to.
Legend:
[1] = molecular target: full-length human KDR on cells (human, UniProt P35968 20-1356); experiment: cell-based or functional assay
[2] = molecular target: T1, human vascular endothelial growth factor receptor-2 Fc chimera (KDR-Fc) (human, UniProt P35968 20-764); experiment: radioactive equilibrium binding (assay not given)
T1 construct: range 1-764; also called human VEGFR-2; hKDR; not shown: human IgG1 Fc
Procedure: (§1) To prepare ³⁵S-labeled binding proteins for analysis, mRNA was prepared as described above for RNA-protein fusion production but the linker ligation step was omitted. The mRNA was expressed using rabbit reticulocyte lysate translation kit (Ambion) in the presence of ³⁵S-labeled Met at 30° C. for 1 hour. Expressed protein was purified on M2-agarose Flag beads (Sigma) as described above. This procedure produced the encoded protein without the nucleic acid tail. In a direct binding assay, VEGF-R2-Fc fusions in concentrations ranging from 0 to 200 nM were added to a constant concentration of the purified protein (0.2 or 0.5 nM) and incubated at 30° C. for 1 hour in buffer B. The receptor-binder complexes were captured using Protein A magnetic beads for another 10 minutes at room temperature using a Kingfisher™ The beads were washed with six reaction volumes of buffer B. The protein was eluted from the beads with 100 μL of 0.1 M KOH. […] of the reaction mixture and elution were dried onto a LumaPlate-96 (Packard) and the amount of ³⁵S on the plate was measured using a TopCount NXT instrument (Packard). The amount of fibronectin-based scaffold protein bound to the target was estimated as a percent of radioactivity eluted from Protein A magnetic beads compare to radioactivity in the reaction mixture. Nonspecific binding of fibronectin-based scaffold proteins to the beads was determined by measuring binding in the absence of KDR-Fc and represented less than 1-2% of the input. Specific binding was obtained through subtraction of nonspecific binding from total binding. Data was analyzed using the GraphPad Prizm software (GraphPad Software, Inc, San Diego, Calif.), fitted using a one site, non-linear binding equation.

[3] = molecular target: T2, mouse vascular endothelial growth factor receptor-2 Fc chimera (Flk-1-Fc) (mouse, UniProt P35918 20-762); experiment: radioactive equilibrium binding (assay not given)
T2 construct: Purchased from R&D Systems; also called mouse VEGF-R2; not shown: Fc part of the purchased chimera
Procedure: as §1
T2 sequence (P35918 20-762, change not shown): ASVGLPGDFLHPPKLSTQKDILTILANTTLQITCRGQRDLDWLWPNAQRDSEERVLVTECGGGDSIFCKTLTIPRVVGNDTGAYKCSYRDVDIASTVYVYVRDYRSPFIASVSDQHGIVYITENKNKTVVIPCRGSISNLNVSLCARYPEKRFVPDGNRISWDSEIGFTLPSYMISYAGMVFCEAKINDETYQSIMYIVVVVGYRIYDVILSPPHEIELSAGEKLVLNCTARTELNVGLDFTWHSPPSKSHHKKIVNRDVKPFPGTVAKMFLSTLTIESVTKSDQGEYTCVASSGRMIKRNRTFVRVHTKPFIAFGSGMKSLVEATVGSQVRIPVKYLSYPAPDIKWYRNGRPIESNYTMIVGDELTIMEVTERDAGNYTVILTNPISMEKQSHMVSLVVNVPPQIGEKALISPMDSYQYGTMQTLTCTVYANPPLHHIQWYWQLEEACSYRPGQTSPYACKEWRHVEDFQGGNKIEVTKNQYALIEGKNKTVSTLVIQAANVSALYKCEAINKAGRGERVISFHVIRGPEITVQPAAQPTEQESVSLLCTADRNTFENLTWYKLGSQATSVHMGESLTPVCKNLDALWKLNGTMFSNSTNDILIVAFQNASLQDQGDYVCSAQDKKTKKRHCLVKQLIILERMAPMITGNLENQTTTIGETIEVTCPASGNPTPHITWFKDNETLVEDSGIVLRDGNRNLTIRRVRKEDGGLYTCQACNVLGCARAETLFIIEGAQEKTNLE

[4] = molecular target: T1, human vascular endothelial growth …; experiment: binding to 1 nM KDR-Fc, % of input; radioactive equilibrium binding (assay not given)
In short: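 Tracer: ³⁵S-Met protein from reticulocyte lysate, Flag-bead purified, no nucleic acid tail. 0.2/0.5 nM binder + 0–200 nM receptor-Fc, 30° C 1 h, buffer B; Protein A bead capture 10 min RT; 0.1 M KOH elution; scintillation count.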

[5] = molecular target: T2, mouse vascular endothelial growth …; experiment: binding to 1 nM Flk-1-Fc, % of input; radioactive equilibrium binding (assay not given)
Procedure: as §1

[6] = molecular target: T3, murine VEGFR-2/EpoR chimera (flk-1/EpoR fusion, pmKE2) on cells (mouse; human, UniProt P35918 20-762; P19235 251-508, limits assumed); experiment: cell-based or functional assay
T3 sequence (P35918 other isoform, or with tags, fused parts or gaps mutant limits assumed, form in doubt): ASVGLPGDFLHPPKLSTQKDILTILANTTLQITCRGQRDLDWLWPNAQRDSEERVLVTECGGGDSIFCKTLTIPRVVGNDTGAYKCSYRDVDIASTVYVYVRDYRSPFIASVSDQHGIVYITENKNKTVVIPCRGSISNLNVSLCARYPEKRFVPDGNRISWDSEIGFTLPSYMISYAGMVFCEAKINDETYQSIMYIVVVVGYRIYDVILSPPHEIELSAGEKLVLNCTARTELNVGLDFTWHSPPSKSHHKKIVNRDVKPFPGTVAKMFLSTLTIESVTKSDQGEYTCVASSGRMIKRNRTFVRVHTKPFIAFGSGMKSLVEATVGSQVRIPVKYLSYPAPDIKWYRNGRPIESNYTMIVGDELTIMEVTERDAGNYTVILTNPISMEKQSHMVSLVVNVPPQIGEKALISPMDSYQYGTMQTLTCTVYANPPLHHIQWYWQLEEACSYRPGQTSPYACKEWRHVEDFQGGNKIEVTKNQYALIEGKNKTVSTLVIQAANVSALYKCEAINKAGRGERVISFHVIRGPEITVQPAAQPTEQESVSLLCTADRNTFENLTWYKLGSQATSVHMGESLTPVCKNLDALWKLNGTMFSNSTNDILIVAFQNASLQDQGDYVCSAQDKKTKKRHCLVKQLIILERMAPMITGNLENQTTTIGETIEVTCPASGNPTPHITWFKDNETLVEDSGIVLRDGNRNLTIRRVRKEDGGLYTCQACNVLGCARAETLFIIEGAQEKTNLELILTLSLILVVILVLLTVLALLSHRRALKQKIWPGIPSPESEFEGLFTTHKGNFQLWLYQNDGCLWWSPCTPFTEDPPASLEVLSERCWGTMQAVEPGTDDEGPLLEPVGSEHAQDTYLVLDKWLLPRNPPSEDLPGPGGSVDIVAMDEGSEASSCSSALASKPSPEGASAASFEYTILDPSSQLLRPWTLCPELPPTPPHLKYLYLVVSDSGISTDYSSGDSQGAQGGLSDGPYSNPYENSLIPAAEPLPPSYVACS

[7] = molecular target: human KDR/EpoR fusion (phKE8) on Ba/F3 cells (human, UniProt P35968 20-764; P19235 251-508, limits assumed); experiment: cell-based or functional assay
[8] = molecular target: T4, full-length human KDR on cells (human, UniProt P35968 20-1356); experiment: cell-based or functional assay; remark: listed apart in the source
[9] = molecular target: T5, human vascular endothelial growth factor receptor-2 Fc chimera (KDR-Fc) (human, UniProt P35968 20-764); experiment: BIAcore, target-Fc immobilized
T5 construct: range 1-764; purchased from R&D Systems; also called hKDR; human VEGF-R2-Fc; not shown: human IgG1 Fc
Procedure: (§2) The binding kinetics of fibronectin-based scaffold proteins binding proteins to the target was measured using BIAcore 2000 biosensor (Pharmacia Biosensor). Human and mouse VEGF-R2-Fc fusions were immobilized onto a CM5 sensor chip and soluble binding proteins were injected at concentrations ranging from 0 to 100 nM in buffer 0 (10 mM HEPES, 150 mM NaCl, 0.005% Tween 20, pH 7.4). Sensorgrams were obtained at each concentration and were evaluated using a program, BIA Evaluation 2.0 (BIAcore), to determine the rate constants kₐ (kₒₙ) and kd (koff.) The affinity constant, KD was calculated from the ratio of rate constants […].

[10] = molecular target: T6, mouse vascular endothelial growth factor receptor-2 Fc chimera (Flk-1-Fc) (mouse, UniProt P35918 20-762); experiment: BIAcore, target-Fc immobilized
T6 construct: purchased from R&D Systems; also called mouse VEGF-R2-Fc; not shown: Fc part of the purchased chimera
Procedure: as §2
T6 sequence (P35918 20-762, change not shown): as the sequence (P35918 20-762, change not shown) above

[11] = molecular target: T4, full-length human KDR on cells; experiment: flow cytometry on CHO KDR cells
Procedure: (§3) The functionality of KDR and Flk-1 binding molecules in a cell culture model system was evaluated with E. coli produced binding molecules.
(§4) Binding of fibronectin-based scaffold protein to cell-surface KDR and Flk-1 was analyzed simultaneously on VEGF-R2-expressing and control cells by flow cytometry. CHO-pcDNA3 cells (control) were released from their dishes with trypsin-EDTA, washed in Dulbecco's PBS without calcium and magnesium (D-PBS⁻; Invitrogen), and stained for 30 minutes at 37° C. with 1.5 μM CMTMR (5-(and -6)-(((4-chloromethyl)benzoyl)amino)-tetramethylrhodamine) (Molecular Probes). The cells were washed in D-PBS⁻ and incubated for a further 30 minutes at 37° C., and then resuspended in blocking buffer (D-PBS⁻/10% fetal bovine serum) on ice. CHO-KDR or CHO-Flk cells were treated identically except that CMTMR was omitted. 75,000 of CMTMR-stained CHO-pcDNA3 cells were mixed with an equal number of unstained CHO-KDR or CHO-Flk cells in each well of a V-bottom 96-well plate. All antibodies and fibronectin-based scaffold proteins were diluted in 25 μl/well of blocking buffer, and each treatment was conducted for 1 hour at 4° C. Cell mixtures were stained with His₆-tagged (SEQ ID NO: 235) fibronectin-based scaffold proteins, washed twice with cold D-PBS⁻, and then treated with 2.5 μg/ml anti-His₆ (SEQ ID NO: 235) MAb (R&D Systems), washed, and stained with 4 μg/ml Alexa Fluor 488-conjugated anti-mouse antibody (Molecular Probes). For cells treated with an anti-KDR mouse monoclonal antibody (Accurate Chemical, Westbury, N.Y.) or an anti-flk-1 goat polyclonal antibody (R&D Systems), the anti-His₆ (SEQ ID NO: 235) step was omitted, and antibody binding was detected with the species-appropriate Alexa Fluor 488 conjugated secondary antibody (Molecular Probes). Following staining, cells were resuspended in 200 μl/well D-PBS⁻/1% FBS/1 μg/ml 7-aminoactinomycin D (7-AAD; Molecular Probes) and analyzed by flow cytometry on a FACSCalibur (Becton Dickinson, San Jose, Calif.) equipped with a […].

[12] = molecular target: T3, murine VEGFR-2/EpoR chimera (flk-1/EpoR …); experiment: flow cytometry on CHO Flk-1 cells
Procedure: as §3, §4

[13] = molecular target: T5, human vascular endothelial growth …; experiment: radioactive equilibrium binding assay
Procedure: as §1

[14] = molecular target: T6, mouse vascular endothelial growth …; experiment: radioactive equilibrium binding assay
Procedure: as §1

[15] = molecular target: T5, human vascular endothelial growth …; experiment: SPR (BIAcore), target immobilized
Procedure: (§5) In vitro affinity measurements were made using surface plasmon resonance (SPR) (BIAcore) with both the human and mouse VEGF-receptor target proteins immobilized via amide chemistry on the BIAcore chip.
as §2

[16] = molecular target: T6, mouse vascular endothelial growth …; experiment: SPR (BIAcore), target immobilized
Procedure: as §5, §2

[17] = molecular target: T2, mouse vascular endothelial growth …; experiment: clones from the 159Q(8)L library; binding per FIG. 4
Procedure: as §1

B1: E26 (designed binder)
chain: EVVAATPTSLLISWRHPHFPTRYYRITYGETGGNSPVQEFTVPLQPPTATISGLKPGVDYTITGYAVTVERNGRELMTPISINYRT
notes: Del 1-8 10Fn3 clone; Tags not included
B1 was tested, and the “HUVEC proliferation assay: decrease in proliferation” value (shortened to “HUVEC proliferation assay: decrease”) [1] was about 40%, the Kd [2] was 1.66 nM and the Kd [3] was 2.05 nM. For the same binder, the “Binding to 1 nM KDR, %” value [4] was 27% and the “Binding to 1 nM FLK, %” value [5] was 20%.

B2: E29 (designed binder)
chain: B1 chain with E75V
notes: as for B1
For B2, the “HUVEC proliferation assay: decrease” value [1] was about 40%, the Kd [2] was 1.51 nM and the Kd [3] was 0.91 nM. For the same binder, the “Binding to 1 nM KDR, %” value [4] was 41% and the “Binding to 1 nM FLK, %” value [5] was 44%.

B3: E26 (designed binder)
chain: B1 chain
notes: Del 1-8 10Fn3 clone; Flag-tagged in vitro translated protein in the radioactive assay, His6-tagged E. coli protein in BIAcore and cell assays; tags left out
B3 was tested, and the “Inhibition of VEGF-induced proliferation, Ba/F3-Flk (IC50, nM)” value [6] was 5.3 nM, the “Inhibition of VEGF-induced proliferation, Ba/F3-KDR (IC50, nM)” value [7] was 3.2 nM and the “Inhibition of VEGF-induced proliferation of HUVEC cells (IC50, nM)” value [8] was 14 nM. It also gave a Kd [9] of 0.51 nM, a koff [9] of 5.8e-05 s⁻¹ and a kon [9] of 110000 M⁻¹ s⁻¹. It also gave a Kd [10] of 2.14 nM, a koff [10] of 0.000477 s⁻¹ and a kon [10] of 220000 M⁻¹ s⁻¹. The EC50 [11] was 2.6 nM, the EC50 [12] was 1.3 nM and the Kd [13] was under 1.7 nM. It also gave a Kd [14] of 2 nM.

B4: E18 (designed binder)
chain: B1 chain with M77N
With B4 the “HUVEC proliferation assay: decrease” value [1] was about 40%.

B5: E19 (designed binder)
chain: B1 chain with E75H
notes: as for B1
B5 was tested, and the “HUVEC proliferation assay: decrease” value [1] was about 40%, the Kd [2] was 1.3 nM and the Kd [3] was 0.66 nM. The “Binding to 1 nM KDR, %” value [4] was 38% and the “Binding to 1 nM FLK, %” value [5] was 40%.

B6: M5FL C100 (designed binder)
chain: MGVSDVPRDLEVVAATPTSLLISWRHPHFPTRYYRITYGETGGNSPVQEFTVPLQPPLATISGLKPGVDYTITVYAVTKERNGRELFTPISINYRTEIDKPCQHHHHHH
notes: unmodified M5FL with C-terminal extension, Cys100 and His tag; a significant percentage is produced with the initial methionine removed; also called C100-form of the M5FL protein
For B6, the Kd [15] was 0.9 nM, the koff [15] was 6.7e-05 s⁻¹ and the kon [15] was 74000 M⁻¹ s⁻¹. The Kd [16] was 2.1 nM, the koff [16] was 0.0003 s⁻¹ and the kon [16] was 146000 M⁻¹ s⁻¹.

B7: M5FL-PEG20 (designed binder)
chain: B6 chain
modifications: linear 20 kD PEG coupled by maleimide chemistry to the cysteine residue at position 100
notes: also called M5FL 20K PEG
B7 showed a Kd [15] of 5.9 nM, a koff [15] of 5.4e-05 s⁻¹ and a kon [15] of 9000 M⁻¹ s⁻¹. It also gave a Kd [16] of 22.8 nM, a koff [16] of 0.00055 s⁻¹ and a kon [16] of 24000 M⁻¹ s⁻¹.

B8: M5FL (designed binder)
chain: VSDVPRDLEVVAATPTSLLISWRHPHFPTRYYRITYGETGGNSPVQEFTVPLQPPLATISGLKPGVDYTITGYAVTKERNGRELFTPISINYRT
notes: extension and tag left out
For B8, the “Inhibition of VEGF-induced proliferation, Ba/F3-Flk (IC50, nM)” value [6] was 5.1 nM, the “Inhibition of VEGF-induced proliferation, Ba/F3-KDR (IC50, nM)” value [7] was 3.9 nM and the “Inhibition of VEGF-induced proliferation of HUVEC cells (IC50, nM)” value [8] was 8.5 nM. It also gave a Kd [9] of 0.89 nM, a koff [9] of 9.2e-05 s⁻¹ and a kon [9] of 100000 M⁻¹ s⁻¹. For the same binder, the Kd [10] was 2.1 nM, the koff [10] was 0.000582 s⁻¹ and the kon [10] was 280000 M⁻¹ s⁻¹.

B9: M3 (designed binder)
chain: B8 chain with L56A
notes: 10Fn3 clone with WT N-terminus; Tags not included
B9: binds [17].

B10: M7 (designed binder)
chain: B8 chain with P55T, L56T, K77W
notes: as for B9
B10: binds [17].

B11: M2 (designed binder)
chain: B8 chain with L56A, K77W
notes: as for B9
B11: binds [17].

B12: M1 (designed binder)
chain: B8 chain with P55T, L56V, K77L, G81D
notes: as for B9
B12: binds [17].

B13: M6 (designed binder)
chain: B8 chain with R30H, L56A, K77L, N80D
notes: as for B9
B13: binds [17].

B14: M4 (designed binder)
chain: B8 chain with R30H, L56A, K77T, N80T
notes: as for B9
B14: binds [17].

B15: M8 (designed binder)
chain: B8 chain with R30H, L56A, N80S
notes: as for B9
B15: binds [17].

Reference: patent US20140179896A1 (published 2014)
